Paper PMC9166750 (Scientific Reports, 2022)

What was measured:
[1] = biological target: syntaxin-1a cytoplasmic domain (residues 1–265) with C-terminal Avi-tag (UniProt P32851); assay: pull-down; syntaxins biotinylated at the N-terminal amino group on neutravidin agarose beads; about 300 μg Munc18-1 incubated 1 h, washed, then 500 μg SNAP-25A 1 h at room temperature, washed with TBS; SDS-PAGE, Coomassie, Munc18-1 and SNAP-25 bands normalised to the syntaxin bands (ImageJ)
[2] = biological target: syntaxin-1a cytoplasmic domain (residues 1–265) with C-terminal Avi-tag (UniProt P32851); assay: fluorescence polarisation; ensemble fluorescence anisotropy of syntaxins with Munc18 (Supplemental Fig. 3); estimated Kd; conditions of this titration not told
[3] = biological target: syntaxin-3b (residues 1–264)-Avi, wild type, double-cysteine construct labelled with FRET dyes (mouse) (UniProt Q64704); assay: FRET or BRET; single-molecule FRET within syntaxin-3b (donor and acceptor on two cysteines), tethered by C-terminal biotin to streptavidin on a PEG surface; 10 μM SNAP-25 and synaptobrevin-2 (1-96) in solution; low FRET (open) read as SNARE complex
[4] = biological target: syntaxin-3b (residues 1–264)-Avi, T14E, double-cysteine construct labelled with FRET dyes (mouse) (UniProt Q64704); assay: as above
[5] = biological target: syntaxin-1a cytoplasmic domain (residues 1–265) with C-terminal Avi-tag (UniProt P32851); assay: fluorescence polarisation; bulk fluorescence anisotropy; Alexa 488-labelled syntaxin about 0.5 μM in TBS (20 mM Tris pH 7.5, 150 mM NaCl, 0.5 mM TCEP), unlabelled SNAP-25A 0-0.900 μM, about 15 min at room temperature, 96 well plate; curves fit with Hill equations to estimate Kd
[6] = biological target: T1, Munc18-1 (UniProt P61765 1-594); assay: fluorescence polarisation; ensemble fluorescence anisotropy of syntaxins with Munc18 (Supplemental Fig. 3); estimated Kd; conditions of this titration not told; settings: both partners purified
T1 construct: The methods describe no plasmid for Munc18-1; only its tag cleavage and gel filtration are told; source: E. coli BL21 (DE3*), purified (Ni-NTA, TEV cleavage, Superdex 200 gel filtration)

Q: What does the source list for “Munc18-1 (from UniProt P61765 1-594) (natural protein)”?
A: percent decrease of binary t-SNARE complex formation with SNAP-25 in the presence of Munc18-1 [1]: 70%; Kd [2]: 6.6 nM

Q: For “synaptobrevin-2 cytoplasmic domain (residues 1–96) (from UniProt P63045 1-96) (domain or fragment)”, which percent of molecules that formed ternary SNARE complex [3] is on record?
A: 50%

Q: And the fold increase of SNARE complex formation against WT syntaxin-3b [4]?
A: 2 fold

Q: For “SNAP-25, full length (from UniProt P60881-2 1-206) (natural protein)”, which percent of molecules that formed ternary SNARE complex [3] is on record?
A: 50%

Q: And the fold increase of SNARE complex formation against WT syntaxin-3b [4]?
A: 2 fold

Q: And the Kd [5]?
A: 161 nM

B1: syntaxin-3b cytoplasmic domain (residues 1–264) with C-terminal Avi-tag, wild type (domain or fragment, mouse, UniProt Q64704-2 1-264, looked up)
chain: MKDRLEQLKAKQLTQDDDTDEVEIAIDNTAFMDEFFSEIEETRLNIDKISEHVEEAKKLYSIILSAPIPEPKTKDDLEQLTTEIKKRANNVRNKLKSMEKHIEEDEVRSSADLRIRKSQHSVLSRKFVEVMTKYNEAQVDFRERSKGRIQRQLEITGKKTTDEELEEMLESGNPAIFTSGIIDSQISKQALSEIEGRHKDIVRLESSIKELHDMFMDIAMLVENQGAMIDRIENNMDQSVGFVERAVADTKKAVKYQSEARRKK
modifications: Alexa 488 (NHS ester) at the N-terminal primary amino group in the anisotropy assays; biotin (NHS-biotin) at the N-terminal primary amino group in the pull-downs
notes: syntaxin-3b (splice isoform 3b of syntaxin-3), cytoplasmic domain, residues 1-264; Gene synthesized and inserted into pJ414 (ATUM); The two native cysteines lie in the transmembrane region, which the Avi-tag replaces; also called SX-3b; WT syntaxin-3b; source: E. coli BL21 (DE3*), purified (Ni-NTA, TEV cleavage, HiTrap Q); not shown: His6, N-terminal, cleaved
Q: Which Kd [6] does the source give for B1 here?
A: 9.6 nM
